Data: article doi:10.1101/2022.01.19.476998 (bioRxiv, 2022)

Target: SARS-CoV-2 Spike S1 (Omicron) (SARS-CoV-2 Omicron B.1.1.529 (BA.1), strain)
Assay: SPR

B1: Cilgavimab (antibody, V domains shown)
VH: EVQLVESGGGLVKPGGSLRLSCAASGFTFRDVWMSWVRQAPGKGLEWVGRIKSKIDGGTTDYAAPVKGRFTISRDDSKNTLYLQMNSLKTEDTAVYYCTTAGSYYYDTVGPGLPEGKFDYWGQGTLVTVSS
VL: not shown
  binding result: binds
